The assay addresses T1, peptide consisting of amino acid residues 44-72 of the human eIF5A protein (human, UniProt P63241 44-72).
T1 construct: range 44-72; also called human eIF5A (44-72) peptide
Kind of assay: ELISA, screening of hybridoma antibodies on the peptide. In general terms: ELISA stands for enzyme-linked immunosorbent assay.

T1 sequence (P63241 44-72 limits assumed): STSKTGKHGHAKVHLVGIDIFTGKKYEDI

B1: anti-ORAIP antibody (clone YSP5-45-36) (antibody, V domains shown)
VH: EVKLVESGGGLVQPGGSLRLSCATSGFTFTDYYMSWARQPPGKALEWLGFIRNKANGYTTEYSASVKGRFTISRDNSLGILYLQMNTLRPEDSATYYCARNYYGTSFSWFAYWGQGTLVTVSA
VL: MTQTPLSLSVSLGDQASISCRSSQSIVHFNGNTYLEWYLQKPGQSPKLLIYKVSSRFSGVPDRFSGSGSGTDFTLKISRVEAEDLGVYYCFQGSHVPPTFGGGTKLEIK
notes: Mouse monoclonal antibody from a hybridoma (mouse IgG H and L chain primers were used for cloning); also called neutralizing antibody against secretory eIF5A
For B1, the binding result was “binds”.

Values taken from patent publication WO2020241660A1 (dated 2020).
